Read-outs that look alike come from different tables or passages of the source.
Tests used:
Assay in all cases: BLI
[1] = target: T1, human FcRn protein (MednaBio, E1032) (human, UniProt P55899 24-297; P61769 21-119)
T1 construct: Bought; assays at pH 6
Procedure, shortened: (§1)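 On an Octet Red96 System, anti-penta-HIS biosensors loaded with commercial human Fc receptor proteins were dipped into test IgG diluted 1:3 over 8 points from 300 nM. Fcγ receptor runs used pH 7.2 and FcRn runs used pH 6. Global fitting of these biolayer interferometry data gave the values for Kd, kon and koff, using a 1:1 binding model.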

[2] = target: T2, human FcRIIA protein (MednaBio, E1033) (human, UniProt P12318 34-218, limits assumed)
T2 construct: Bought; also called FcγRIIA
T2 sequence (looked up): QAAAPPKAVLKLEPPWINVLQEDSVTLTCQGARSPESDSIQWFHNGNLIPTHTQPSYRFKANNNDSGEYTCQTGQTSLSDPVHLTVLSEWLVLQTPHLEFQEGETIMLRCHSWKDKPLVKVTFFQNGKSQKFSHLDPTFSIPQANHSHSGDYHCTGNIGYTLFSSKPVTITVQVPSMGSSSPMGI
Procedure, shortened: as §1

[3] = target: T1, human FcRn protein (MednaBio, E1032); remark: listed apart in the source
Procedure, shortened: as §1

[4] = target: T2, human FcRIIA protein (MednaBio, E1033); remark: listed apart in the source
Procedure, shortened: as §1

[5] = target: T1, human FcRn protein (MednaBio, E1032); remark: listed apart in the source
Protocol: (§2) These IgG mutants were tested for binding to a panel of human Fc receptors (FcRs), including FcRn, using the Octet Red96 System (ForteBio, Model #Red96). Human FcR proteins were purchased commercially (FcRn, MednaBio, E1032; FcRI, MednaBio, E1031; FcRIIA, MednaBio, E1033; FcRIIB/C, MednaBio, E1034; FcRIIIA-F158, MednaBio, E1036; FcRIIIA-V158, MednaBio, E1035; FcRIIIB, MednaBio, E1037). All Fey receptor assays were performed at pH 7.2; all FcRn assays were performed at pH 6. The Fey receptors were loaded onto anti-penta-HIS1K (ForteBio, Cat #18-5122) biosensors at a concentration of 20 μg/mL. The loaded biosensors was then be dipped into an 8-point 1:3 dilution series of the test IgG molecules (including controls and the mutants described herein) in PBS with 0.1% BSA, 0.02% Tween-20 (pH 7.2) at a starting concentration of 300 nM. Kinetic analysis was performed using a 1:1 binding model and global fitting.

[6] = target: T2, human FcRIIA protein (MednaBio, E1033); remark: listed apart in the source
Protocol: as §2

[7] = target: T1, human FcRn protein (MednaBio, E1032); remark: listed apart in the source
Procedure, shortened: as §1

[8] = target: T2, human FcRIIA protein (MednaBio, E1033); remark: listed apart in the source
Procedure, shortened: as §1

[9] = target: T1, human FcRn protein (MednaBio, E1032); remark: listed apart in the source
Protocol: as §2

[10] = target: T2, human FcRIIA protein (MednaBio, E1033); remark: listed apart in the source
Protocol: as §2

[11] = target: T1, human FcRn protein (MednaBio, E1032); remark: listed apart in the source
Procedure, shortened: as §1

[12] = target: T2, human FcRIIA protein (MednaBio, E1033); remark: listed apart in the source
Procedure, shortened: as §1

[13] = target: T1, human FcRn protein (MednaBio, E1032); remark: listed apart in the source
Procedure, shortened: as §1

[14] = target: T3, human FcRI protein (MednaBio, E1031) (human, UniProt P12314 16-288, limits assumed)
T3 construct: Bought; loaded on anti-penta-HIS biosensors; also called FcγRI
T3 sequence (P12314 16-288 limits assumed): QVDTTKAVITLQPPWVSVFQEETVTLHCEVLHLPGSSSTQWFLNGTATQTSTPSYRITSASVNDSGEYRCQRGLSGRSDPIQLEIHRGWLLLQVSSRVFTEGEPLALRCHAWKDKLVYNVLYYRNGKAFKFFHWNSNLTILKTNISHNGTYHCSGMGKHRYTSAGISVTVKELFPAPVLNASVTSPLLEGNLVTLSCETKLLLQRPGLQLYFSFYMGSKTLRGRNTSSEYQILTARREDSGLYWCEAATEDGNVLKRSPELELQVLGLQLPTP
Procedure, shortened: as §1

[15] = target: T4, human FcRIIB/C protein (MednaBio, E1034) (human, UniProt P31994 43-217, limits assumed)
T4 construct: Bought as FcRIIB/C; also called FcγRIIB; CD32B
T4 sequence (looked up): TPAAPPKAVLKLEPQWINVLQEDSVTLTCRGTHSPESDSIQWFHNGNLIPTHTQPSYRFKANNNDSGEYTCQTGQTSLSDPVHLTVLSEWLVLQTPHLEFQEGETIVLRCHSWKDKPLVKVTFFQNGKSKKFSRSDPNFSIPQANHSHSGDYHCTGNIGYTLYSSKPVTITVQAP
Procedure, shortened: as §1

[16] = target: T2, human FcRIIA protein (MednaBio, E1033); remark: listed apart in the source
Procedure, shortened: as §1

T1 sequence (P55899 24-297 limits assumed, form in doubt, chain 1 of 2): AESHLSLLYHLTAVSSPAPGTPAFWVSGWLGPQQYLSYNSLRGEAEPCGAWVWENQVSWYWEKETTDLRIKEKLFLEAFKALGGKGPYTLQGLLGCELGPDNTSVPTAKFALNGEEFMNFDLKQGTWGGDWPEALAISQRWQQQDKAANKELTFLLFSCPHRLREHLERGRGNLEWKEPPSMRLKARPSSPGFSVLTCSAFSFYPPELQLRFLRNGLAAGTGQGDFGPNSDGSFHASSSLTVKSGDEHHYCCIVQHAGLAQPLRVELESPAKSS
T1 sequence (P61769 21-119 limits assumed, form in doubt, chain 2 of 2): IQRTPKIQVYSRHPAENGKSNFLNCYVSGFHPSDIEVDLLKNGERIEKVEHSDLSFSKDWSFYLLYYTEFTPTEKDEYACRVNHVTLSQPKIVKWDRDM

B1: wild-type human IgG2 control (antibody)
heavy: EVQLVQSGAEVKKPGESLRISCKGSGYSFSTYWISWVRQMPGKGLEWMGKIYPGDSYTNYSPSFQGQVTISADKSISTAYLQWSSLKASDTAMYYCARGYGIFDYWGQGTLVTVSSASTKGPSVFPLAPCSRSTSESTAALGCLVKDYFPEPVTVSWNSGALTSGVHTFPAVLQSSGLYSLSSVVTVPSSNFGTQTYTCNVDHKPSNTKVDKTVERKCCVECPPCPAPPVAGPSVFLFPPKPKDTLMISRTPEVTCVVVDVSHEDPEVQFNWYVDGVEVHNAKTKPREEQFNSTFRVVSVLTVVHQDWLNGKEYKCKVSNKGLPAPIEKTISKTKGQPREPQVYTLPPSREEMTKNQVSLTCLVKGFYPSDIAVEWESNGQPENNYKTTPPMLDSDGSFFLYSKLTVDKSRWQQGNVFSCSVMHEALHNHYTQKSLSLSPGK
light: SYELTQPPSVSVSPGQTASITCSGDNIGDQYAHWYQQKPGQSPVLVIYQDKNRPSGIPERFSGSNSGNTATLTISGTQAMDEADYYCATYTGFGSLAVFGGGTKLTVLGQPKAAPSVTLFPPSSEELQANKATLVCLISDFYPGAVTVAWKADSSPVKAGVETTTPSKQSNNKYAASSYLSLTPEQWKSHRSYSCQVTHEGSTVEKTVAPTECS
notes: Control IgG
- Kd [1]: 10 nM
- koff [1]: 0.0099 s⁻¹
- kon [1]: 990000 M⁻¹ s⁻¹
- Kd [2]: 89 nM
- koff [2]: 0.039 s⁻¹
- kon [2]: 440000 M⁻¹ s⁻¹
- Kd [3]: 10 nM
- koff [3]: 0.0099 s⁻¹
- kon [3]: 990000 M⁻¹ s⁻¹
- Kd [4]: 89 nM
- koff [4]: 0.039 s⁻¹
- kon [4]: 440000 M⁻¹ s⁻¹
- Kd [5]: 10 nM
- koff [5]: 0.0099 s⁻¹
- kon [5]: 990000 M⁻¹ s⁻¹
- Kd [6]: 89 nM
- koff [6]: 0.039 s⁻¹
- kon [6]: 440000 M⁻¹ s⁻¹
- Kd [7]: 10 nM
- koff [7]: 0.0099 s⁻¹
- kon [7]: 990000 M⁻¹ s⁻¹
- Kd [8]: 89 nM
- koff [8]: 0.039 s⁻¹
- kon [8]: 440000 M⁻¹ s⁻¹
- Kd [9]: 10 nM
- koff [9]: 0.0099 s⁻¹
- kon [9]: 990000 M⁻¹ s⁻¹
- Kd [10]: 89 nM
- koff [10]: 0.039 s⁻¹
- kon [10]: 440000 M⁻¹ s⁻¹
- Kd [11]: 10 nM
- koff [11]: 0.0099 s⁻¹
- kon [11]: 990000 M⁻¹ s⁻¹
- Kd [12]: 89 nM
- koff [12]: 0.039 s⁻¹
- kon [12]: 440000 M⁻¹ s⁻¹

B2: anti-CD137 IgG4 with Fc variant G4m19 (antibody)
heavy: EVQLVQSGAEVKKPGESLRISCKGSGYSFSTYWISWVRQMPGKGLEWMGKIYPGDSYTNYSPSFQGQVTISADKSISTAYLQWSSLKASDTAMYYCARGYGIFDYWGQGTLVTVSSASTKGPSVFPLAPCSRSTSESTAALGCLVKDYFPEPVTVSWNSGALTSGVHTFPAVLQSSGLYSLSSVVTVPSSSLGTKTYTCNVDHKPSNTKVDKRVESKYGPPCPPCPAPEFLSVFLFPPKPKDTLMISRTPEVTCVVVDVEQEDPEVQFNWYVDGVEVHNAKTKPREEQFNSTYRVVSVLTVLHQDWLNGKEYKCKVSNKGFPSSIEKTISKAKGQPREPQVYTLPPSQEEMTKNQVSLTCLVKGFYPSDIAVEWESNGQPENNYKTTPPVLDSDGSFFLYSRLTVDKSRWQEGNVFSCSVMHEALHNHYTQKSLSLSLGK
light: SYELTQPPSVSVSPGQTASITCSGDNIGDQYAHWYQQKPGQSPVLVIYQDKNRPSGIPERFSGSNSGNTATLTISGTQAMDEADYYCATYTGFGSLAVFGGGTKLTVLGQPKAAPSVTLFPPSSEELQANKATLVCLISDFYPGAVTVAWKADSSPVKAGVETTTPSKQSNNKYAASSYLSLTPEQWKSHRSYSCQVTHEGSTVEKTVAPTECS
notes: copies: 2 + 2
- Kd [13]: 13 nM
- koff [13]: 0.009 s⁻¹
- kon [13]: 690000 M⁻¹ s⁻¹

B3: anti-CD137 IgG4 with Fc variant G4m25 (antibody)
heavy: EVQLVQSGAEVKKPGESLRISCKGSGYSFSTYWISWVRQMPGKGLEWMGKIYPGDSYTNYSPSFQGQVTISADKSISTAYLQWSSLKASDTAMYYCARGYGIFDYWGQGTLVTVSSASTKGPSVFPLAPCSRSTSESTAALGCLVKDYFPEPVTVSWNSGALTSGVHTFPAVLQSSGLYSLSSVVTVPSSSLGTKTYTCNVDHKPSNTKVDKRVESKYGPPCPPCPAPEFLGPSVFLFPPKPKDTLMISRTPEVTCVVVDVSQEDPEEQFNWYVDGVEVHNAKTKPREEQFNSTYRVVSVLTVLHQDWLNGKEYKCKVSNKGLPSSIEKTISKAKGQPREPQVYTLPPSQEEMTKNQVSLTCLVKGFYPSDIAVEWESNGQPENNYKTTPPVLDSDGSFFLYSRLTVDKSRWQEGNVFSCSVMHEALHNHYTQKSLSLSLGK
light: SYELTQPPSVSVSPGQTASITCSGDNIGDQYAHWYQQKPGQSPVLVIYQDKNRPSGIPERFSGSNSGNTATLTISGTQAMDEADYYCATYTGFGSLAVFGGGTKLTVLGQPKAAPSVTLFPPSSEELQANKATLVCLISDFYPGAVTVAWKADSSPVKAGVETTTPSKQSNNKYAASSYLSLTPEQWKSHRSYSCQVTHEGSTVEKTVAPTECS
notes: copies: 2 + 2
- Kd [13]: 19 nM
- koff [13]: 0.009 s⁻¹
- kon [13]: 480000 M⁻¹ s⁻¹
- Kd [14]: 46 nM
- koff [14]: 0.017 s⁻¹
- kon [14]: 380000 M⁻¹ s⁻¹
- Kd [15]: 240 nM
- koff [15]: 0.03 s⁻¹
- kon [15]: 130000 M⁻¹ s⁻¹
- Kd [16]: 660 nM
- koff [16]: 0.038 s⁻¹
- kon [16]: 57000 M⁻¹ s⁻¹

B4: anti-CD137 IgG4 with Fc variant G4m27 (antibody)
heavy: EVQLVQSGAEVKKPGESLRISCKGSGYSFSTYWISWVRQMPGKGLEWMGKIYPGDSYTNYSPSFQGQVTISADKSISTAYLQWSSLKASDTAMYYCARGYGIFDYWGQGTLVTVSSASTKGPSVFPLAPCSRSTSESTAALGCLVKDYFPEPVTVSWNSGALTSGVHTFPAVLQSSGLYSLSSVVTVPSSSLGTKTYTCNVDHKPSNTKVDKRVESKYGPPCPPCPAPEFLGPSVFLFPPKPKDTLMISRTPEVTCVVVDVEQEDPEVQFNWYVDGVEVHNAKTKPREEQFNSTYRVVSVLTVLHQDWLNGKEYKCKVSNKGLPSSIEKTISKAKGQPREPQVYTLPPSQEEMTKNQVSLTCLVKGFYPSDIAVEWESNGQPENNYKTTPPVLDSDGSFFLYSRLTVDKSRWQEGNVFSCSVMHEALHNHYTQKSLSLSLGK
light: SYELTQPPSVSVSPGQTASITCSGDNIGDQYAHWYQQKPGQSPVLVIYQDKNRPSGIPERFSGSNSGNTATLTISGTQAMDEADYYCATYTGFGSLAVFGGGTKLTVLGQPKAAPSVTLFPPSSEELQANKATLVCLISDFYPGAVTVAWKADSSPVKAGVETTTPSKQSNNKYAASSYLSLTPEQWKSHRSYSCQVTHEGSTVEKTVAPTECS
notes: copies: 2 + 2
- Kd [13]: 23 nM
- koff [13]: 0.01 s⁻¹
- kon [13]: 450000 M⁻¹ s⁻¹
- Kd [14]: 66 nM
- koff [14]: 0.025 s⁻¹
- kon [14]: 370000 M⁻¹ s⁻¹
- Kd [15]: 310 nM
- koff [15]: 0.039 s⁻¹
- kon [15]: 130000 M⁻¹ s⁻¹
